Experimental data published in PMC6512903.

Columns and labels:
Test in all cases: SPR
FcγRIa (human) = FcγRIa (human) (UniProt P12314)
FcγRIIb/c (human) = FcγRIIb/c (human) (UniProt P31994)
FcRn (human) = FcRn (human) (UniProt P55899)
FcγRIIIa (V) (human) = FcγRIIIa (V) (human) (UniProt P08637)
FcγRIIIa (F) (human) = FcγRIIIa (F) (human) (UniProt P08637)
FcγRIIIb (human) = FcγRIIIb (human) (UniProt O75015)
Sequence of UniProt O75015 (O75015 17-200): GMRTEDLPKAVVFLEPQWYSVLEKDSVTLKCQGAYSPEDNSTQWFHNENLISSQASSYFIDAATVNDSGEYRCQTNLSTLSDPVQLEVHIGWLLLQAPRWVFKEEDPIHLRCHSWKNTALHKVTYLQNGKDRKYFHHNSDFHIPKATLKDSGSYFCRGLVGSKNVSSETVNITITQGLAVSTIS

Sequence of UniProt P12314 (P12314 16-374): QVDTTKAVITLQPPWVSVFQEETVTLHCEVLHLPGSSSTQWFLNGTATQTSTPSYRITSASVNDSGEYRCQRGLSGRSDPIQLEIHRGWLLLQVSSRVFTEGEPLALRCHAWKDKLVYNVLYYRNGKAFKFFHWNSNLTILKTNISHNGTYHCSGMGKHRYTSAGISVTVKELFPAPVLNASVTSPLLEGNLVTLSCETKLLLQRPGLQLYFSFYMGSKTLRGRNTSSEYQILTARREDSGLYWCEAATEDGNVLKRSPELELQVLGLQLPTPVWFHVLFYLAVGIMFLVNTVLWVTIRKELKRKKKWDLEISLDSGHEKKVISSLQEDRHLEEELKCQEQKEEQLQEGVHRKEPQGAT
Sequence of UniProt P31994 (P31994 43-310): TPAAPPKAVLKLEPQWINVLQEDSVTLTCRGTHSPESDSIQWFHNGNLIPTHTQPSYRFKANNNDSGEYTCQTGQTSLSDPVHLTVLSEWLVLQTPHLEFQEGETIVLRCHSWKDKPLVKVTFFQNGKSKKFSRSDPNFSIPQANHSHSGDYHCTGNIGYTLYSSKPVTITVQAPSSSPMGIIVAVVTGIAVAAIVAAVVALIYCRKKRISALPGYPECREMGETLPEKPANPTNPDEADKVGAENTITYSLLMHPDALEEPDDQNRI

relative binding activity (KD ratio to a reference), mean of batches (FcγRIa (human)) [%]	relative binding activity (KD ratio to a reference), mean of batches (FcγRIIb/c (human)) [%]	relative binding activity (KD ratio to a reference), mean of batches (FcRn (human)) [%]	relative binding activity (KD ratio to a reference), mean of batches (FcγRIIIa (V) (human)) [%]	relative binding activity (KD ratio to a reference), mean of batches (FcγRIIIa (F) (human)) [%]	relative binding activity (KD ratio to a reference), mean of batches (FcγRIIIb (human)) [%]	Substance
103	90	113	95	98	–	HLX01 (antibody)
–	99	131	–	–	–	CN-rituximab (MabThera, sourced in China but manufactured in Europe) (antibody)
118	–	121	–	–	90	EU-rituximab (MabThera, sourced and manufactured in Europe) (antibody)
